In patent publication US20210253733A1:
Each block holds one substance with its values, some of them ahead of it.

Legend:
[1] = molecular target: recombinant murine CD163 (R&D Systems, No. 7435-CD-050) (murine) (UniProt Q2VLH6); assay: ELISA, plate coated with 5 ug/mL recombinant murine CD163, A450
[2] = molecular target: purified recombinant human CD163 protein used for SPR (human) (UniProt Q86VB7); assay: SPR (Biacore T200), CD163 amine-coupled to chip, antibody as analyte, EDTA buffer
[3] = molecular target: purified recombinant human CD163 protein used for SPR (human) (UniProt Q86VB7); assay: SPR (Biacore T200), CD163 amine-coupled to chip, antibody as analyte, calcium-containing buffer
[4] = molecular target: human CD163 expressed on human myeloid cells (M2c macrophages, M2 macrophages, in vitro MDSCs) (human) (UniProt Q86VB7); assay: flow cytometry, unconjugated anti-CD163 (MAB1607) with labelled secondary antibody on untreated M2c macrophages
[5] = molecular target: His-tagged recombinant human CD163 (R&D Systems, No. 1607-CD-050) (human) (UniProt Q86VB7); assay: ELISA, plate coated with 5 ug/mL His-tagged recombinant human CD163, HRP anti-mouse IgG F(ab')2, A450
[6] = molecular target: human CD163 ECD with a C-terminal 8 histidine tag (HEK293-6E) (human) (UniProt Q86VB7); assay: binding titration on recombinant huCD163 ECD
[7] = molecular target: human CD163 expressed on human myeloid cells (M2c macrophages, M2 macrophages, in vitro MDSCs) (human) (UniProt Q86VB7); assay: flow cytometry, APC-labelled anti-huCD163 on M2c macrophages pre-treated with 200 ug/mL goat control polyclonal antibody
[8] = molecular target: truncated human CD163 ECD SRCR domain 1-5 fragment with C-terminus histidine tag (HEK293-6E) (human) (UniProt Q86VB7); assay: binding titration on truncated huCD163 SRCR 1-5
[9] = molecular target: truncated human CD163 ECD SRCR domain 1-5 fragment with C-terminus histidine tag (HEK293-6E) (human) (UniProt Q86VB7); assay: ratio of EC50 on huCD163 SRCR 1-5 to EC50 on huCD163 ECD

purified recombinant human CD163 protein used for SPR (human), sequence (Q86VB7 46-1050 limits assumed): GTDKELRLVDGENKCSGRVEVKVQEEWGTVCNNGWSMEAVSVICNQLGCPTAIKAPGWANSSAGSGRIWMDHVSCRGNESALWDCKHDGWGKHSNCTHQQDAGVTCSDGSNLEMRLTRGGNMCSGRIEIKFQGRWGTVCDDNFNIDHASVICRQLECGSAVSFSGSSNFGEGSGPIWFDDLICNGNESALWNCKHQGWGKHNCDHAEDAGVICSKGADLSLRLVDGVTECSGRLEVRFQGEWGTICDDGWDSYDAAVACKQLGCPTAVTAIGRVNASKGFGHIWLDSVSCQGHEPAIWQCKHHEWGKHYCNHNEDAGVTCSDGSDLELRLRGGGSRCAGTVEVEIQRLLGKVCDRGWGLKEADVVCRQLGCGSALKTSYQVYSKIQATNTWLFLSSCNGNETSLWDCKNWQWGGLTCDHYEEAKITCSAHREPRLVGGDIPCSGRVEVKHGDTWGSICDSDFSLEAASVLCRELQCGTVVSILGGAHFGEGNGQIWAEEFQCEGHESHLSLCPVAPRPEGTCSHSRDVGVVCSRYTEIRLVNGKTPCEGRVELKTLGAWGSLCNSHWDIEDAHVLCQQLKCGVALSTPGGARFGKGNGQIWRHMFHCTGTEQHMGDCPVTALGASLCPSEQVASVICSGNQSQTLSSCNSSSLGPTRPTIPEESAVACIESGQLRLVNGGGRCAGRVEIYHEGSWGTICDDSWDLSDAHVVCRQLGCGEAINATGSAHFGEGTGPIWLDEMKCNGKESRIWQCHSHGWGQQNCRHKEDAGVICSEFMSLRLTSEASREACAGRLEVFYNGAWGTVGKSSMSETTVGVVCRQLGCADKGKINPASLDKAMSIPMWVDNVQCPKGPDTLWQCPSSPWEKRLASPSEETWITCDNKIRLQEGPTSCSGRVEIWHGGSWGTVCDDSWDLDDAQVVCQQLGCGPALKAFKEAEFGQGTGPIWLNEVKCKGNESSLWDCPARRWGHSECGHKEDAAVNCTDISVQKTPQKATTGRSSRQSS
truncated human CD163 ECD SRCR domain 1-5 fragment with C-terminus histidine tag (HEK293-6E) (human), sequence (Q86VB7 42-578 limits assumed): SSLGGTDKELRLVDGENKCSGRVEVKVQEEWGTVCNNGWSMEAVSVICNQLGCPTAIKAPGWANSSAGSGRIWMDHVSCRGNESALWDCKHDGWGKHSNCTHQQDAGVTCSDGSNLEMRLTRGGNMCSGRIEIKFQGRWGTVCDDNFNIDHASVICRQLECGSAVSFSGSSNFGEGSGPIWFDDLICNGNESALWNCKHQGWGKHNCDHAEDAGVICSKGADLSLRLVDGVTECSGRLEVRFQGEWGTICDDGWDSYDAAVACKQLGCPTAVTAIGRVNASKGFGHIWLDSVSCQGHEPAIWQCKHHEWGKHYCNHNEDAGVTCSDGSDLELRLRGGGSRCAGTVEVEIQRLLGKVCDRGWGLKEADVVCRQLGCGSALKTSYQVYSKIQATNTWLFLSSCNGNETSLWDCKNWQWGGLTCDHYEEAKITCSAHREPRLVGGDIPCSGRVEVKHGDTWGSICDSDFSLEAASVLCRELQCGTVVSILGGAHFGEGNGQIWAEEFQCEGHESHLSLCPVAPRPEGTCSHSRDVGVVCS
human CD163 ECD with a C-terminal 8 histidine tag (HEK293-6E) (human), sequence (Q86VB7 other isoform, or with tags, fused parts or gaps limits assumed): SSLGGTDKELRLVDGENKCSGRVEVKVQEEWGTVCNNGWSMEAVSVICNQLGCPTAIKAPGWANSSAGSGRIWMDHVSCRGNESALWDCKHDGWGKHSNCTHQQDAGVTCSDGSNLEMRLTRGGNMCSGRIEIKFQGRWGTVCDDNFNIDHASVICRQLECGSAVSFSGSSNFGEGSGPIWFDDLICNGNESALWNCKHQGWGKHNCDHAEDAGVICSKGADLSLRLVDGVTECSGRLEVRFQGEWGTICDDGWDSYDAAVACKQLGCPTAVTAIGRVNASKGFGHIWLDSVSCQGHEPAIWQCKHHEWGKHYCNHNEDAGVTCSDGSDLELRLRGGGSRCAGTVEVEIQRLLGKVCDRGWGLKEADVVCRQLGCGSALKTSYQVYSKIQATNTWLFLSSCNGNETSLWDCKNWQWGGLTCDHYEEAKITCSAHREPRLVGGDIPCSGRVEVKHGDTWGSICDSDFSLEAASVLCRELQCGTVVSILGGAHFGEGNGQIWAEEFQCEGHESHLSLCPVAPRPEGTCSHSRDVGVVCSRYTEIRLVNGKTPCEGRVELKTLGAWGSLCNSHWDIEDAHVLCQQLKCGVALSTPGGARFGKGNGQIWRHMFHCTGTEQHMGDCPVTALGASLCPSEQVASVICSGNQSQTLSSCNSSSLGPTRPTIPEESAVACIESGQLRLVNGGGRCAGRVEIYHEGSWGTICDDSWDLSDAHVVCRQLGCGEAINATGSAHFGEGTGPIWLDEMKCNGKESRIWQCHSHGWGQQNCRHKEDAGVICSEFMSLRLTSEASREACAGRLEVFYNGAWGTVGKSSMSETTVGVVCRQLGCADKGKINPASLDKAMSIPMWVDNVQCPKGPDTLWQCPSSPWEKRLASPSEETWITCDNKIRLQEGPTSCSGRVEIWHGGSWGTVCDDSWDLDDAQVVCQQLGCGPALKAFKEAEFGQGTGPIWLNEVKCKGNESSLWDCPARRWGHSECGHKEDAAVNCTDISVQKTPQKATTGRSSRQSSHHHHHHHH
human CD163 expressed on human myeloid cells (M2c macrophages, M2 macrophages, in vitro MDSCs) (human), sequence (Q86VB7 42-1114, tags or fused parts left off): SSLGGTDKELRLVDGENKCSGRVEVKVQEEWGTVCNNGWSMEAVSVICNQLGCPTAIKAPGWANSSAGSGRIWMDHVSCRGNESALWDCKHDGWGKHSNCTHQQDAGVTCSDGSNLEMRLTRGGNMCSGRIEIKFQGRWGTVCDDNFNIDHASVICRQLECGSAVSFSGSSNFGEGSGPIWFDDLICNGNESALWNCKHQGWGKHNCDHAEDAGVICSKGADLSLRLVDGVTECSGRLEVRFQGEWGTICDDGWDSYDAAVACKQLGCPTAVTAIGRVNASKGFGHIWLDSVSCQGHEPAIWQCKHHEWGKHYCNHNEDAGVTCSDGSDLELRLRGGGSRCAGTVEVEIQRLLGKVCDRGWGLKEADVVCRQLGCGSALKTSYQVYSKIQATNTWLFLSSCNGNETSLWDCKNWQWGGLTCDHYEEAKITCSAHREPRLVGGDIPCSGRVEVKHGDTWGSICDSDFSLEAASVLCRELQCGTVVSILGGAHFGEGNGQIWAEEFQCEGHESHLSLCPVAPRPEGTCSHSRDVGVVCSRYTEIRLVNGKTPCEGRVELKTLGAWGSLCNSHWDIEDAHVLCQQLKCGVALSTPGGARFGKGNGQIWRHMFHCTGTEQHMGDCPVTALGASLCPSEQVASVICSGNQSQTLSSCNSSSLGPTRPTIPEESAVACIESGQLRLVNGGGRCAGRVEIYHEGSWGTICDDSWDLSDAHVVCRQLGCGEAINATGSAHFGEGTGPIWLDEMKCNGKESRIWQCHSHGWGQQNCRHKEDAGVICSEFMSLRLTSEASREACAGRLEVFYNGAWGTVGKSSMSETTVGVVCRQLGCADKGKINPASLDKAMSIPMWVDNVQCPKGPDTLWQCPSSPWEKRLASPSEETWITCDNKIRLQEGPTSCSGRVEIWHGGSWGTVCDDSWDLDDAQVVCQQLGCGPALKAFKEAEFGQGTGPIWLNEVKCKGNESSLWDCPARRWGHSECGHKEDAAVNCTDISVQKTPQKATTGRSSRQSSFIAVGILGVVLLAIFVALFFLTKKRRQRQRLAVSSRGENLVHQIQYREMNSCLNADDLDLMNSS
His-tagged recombinant human CD163 (R&D Systems, No. 1607-CD-050) (human), sequence (Q86VB7 46-1050 limits assumed): as the sequence (Q86VB7 46-1050 limits assumed) above

Kd [2]: 12 nM
koff [2]: 0.000178 s⁻¹
kon [2]: 14800 M⁻¹ s⁻¹
Kd [3]: 63 nM
koff [3]: 0.000467 s⁻¹
kon [3]: 7320 M⁻¹ s⁻¹
Substance: anti-CD163 clone GHI/61 (antibody)

EC50 (read off the curve) [4]: 3 nM
EC50 (read off the curve) [5]: 0.01 nM
Substance: control anti-huCD163 antibody, murine IgG1 (R&D Systems, #MAB1607)

EC50 [8]: 0.02 nM
Ratio SRCR 1-5/ECD (EC50) [9]: 1.17
EC50 [6]: 0.017 nM
Substance: 215927 (antibody)

Further lines, the substance ahead of its results:

Substance: commercially available rat anti-muCD163 antibody (Thermo Fisher Scientific #14-1631-82)
EC50 (read off the curve) [1]: 0.02 nM

Substance: RM3/1 (antibody)
EC50 [6]: 0.061 nM

Substance: APC-labeled anti-huCD163 antibody (R&D Systems, #FAB1607A)
EC50 (read off the curve) [7]: 10 nM

Substance: EDHu-1 (antibody)
EC50 [8]: 0.05 nM
Ratio SRCR 1-5/ECD (EC50) [9]: 0.96
EC50 [6]: 0.052 nM
